In this data set the target is T1, thio GLP-1 (GLP-1 7-36 with a thioamide at the Ala8-Glu9 scissile bond).
T1 chain: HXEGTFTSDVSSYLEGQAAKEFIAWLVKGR

B1: dipeptidyl peptidase 4 (DPP-4) (protein)
chain: SRKTYTLTDYLKNTYRLKLYSLRWISDHEYLYKQENNILVFNAEYGNSSVFLENSTFDEFGHSINDYSISPDGQFILLEYNYVKQWRHSYTASYDIYDLNKRQLITEERIPNNTQWVTWSPVGHKLAYVWNNDIYVKIEPNLPSYRITWTGKEDIIYNGITDWVYEEEVFSAYSALWWSPNGTFLAYAQFNDTEVPLIEYSFYSDESLQYPKTVRVPYPKAGAVNPTVKFFVVNTDSLSSVTNATSIQITAPASMLIGDHYLCDVTWATQERISLQWLRRIQNYSVMDICDYDESSGRWNCLVARQHIEMSTTGWVGRFRPSEPHFTLDGNSFYKIISNEEGYRHICYFQIDKKDCTFITKGTWEVIGIEALTSDYLYYISNEYKGMPGGRNLYKIQLSDYTKVTCLSCELNPERCQYYSVSFSKEAKYYQLRCSGPGLPLYTLHSSVNDKGLRVLEDNSALDKMLQNVQMPSKKLDFIILNETKFWYQMILPPHFDKSKKYPLLLDVYAGPCSQKADTVFRLNWATYLASTENIIVASFDGRGSGYQGDKIMHAINRRLGTFEVEDQIEAARQFSKMGFVDNKRIAIWGWSYGGYVTSMVLGSGSGVFKCGIAVAPVSRWEYYDSVYTERYMGLPTPEDNLDHYRNSTVMSRAENFKQVEYLLIHGTADDNVHFQQSAQISKALVDVGVDFQAMWYTDEDHGIASSTAHQHIYTHMSHFIKQCFSLP
For B1, the “cleavage of Gly-Pro-pNA substrate by DPP-4” value was “did not inhibit cleavage of Gly-Pro-pNA substrate at 100 µM”.

The values are drawn from US20240239860.
